The target in the experiment is 6x(His)-tagged SARS-CoV-1 RBD (SARS-CoV-1, strain , UniProt P59594). The experiment in a line: BLI. Particulars: both partners purified.

In general, Kd refers to the constant that tells how readily two partners part at equilibrium. Low readings indicate higher affinity, high ones lower affinity.

B1: D27LE (antibody, V domains shown)
VH: QVQLQQSGAEVKKPGSSVKVSCKASGGTFGNWSISWVRQAPGQGLEWMGGIDPSRGEATYAQKFQGRVTITTDESTSTAYMELSSLRSEDTAVYYCARETWYTSGGMDVWGQGTTVTVSS
VL: SYELTQPPSVSVAPGKTARITCGGNNIGRKSVHWYQQKPGQAPVLVVYDDSDRPSGIPERFSGSNSGNTATLTISRVEAGDEADYYCQVYDLWSSDYVFGTGTKVEIK
B1: the equilibrium dissociation constant (Kd) is below 0.01 nM.
